Measurements taken from publication PMC12171399.

Assays:
[1] = biological target: VEGF-A-HisTag refolded from inclusion bodies of BL21(DE3) (mouse); test: SDS-PAGE under reducing and non-reducing conditions; purified protein; disulfide-linked homodimer told from monomer by comparing migration under reducing or non-reducing conditions; 5%-20% gradient gel; refolded samples after cation-exchange chromatography
[2] = biological target: non-tagged mature mouse VEGF-A (188 amino acids form), refolded from TAPS-VEGF-A (mouse); test: as above
[3] = biological target: secreted form of VEGF-A-HisTag expressed in Expi293 cells (mouse) (UniProt Q00731); test: SDS-PAGE; VEGF-A-HisTag from Expi293 culture media, purified on a heparin affinity column

“VEGF-A-HisTag refolded from inclusion bodies of BL21(DE3) (ligand)” was tested, and the stoichiometry N [1] was 2.
In the case of “non-tagged mature mouse VEGF-A (188 amino acids form), refolded from TAPS-VEGF-A (ligand)”, the stoichiometry N [2] is reported as 2.
“secreted form of VEGF-A-HisTag expressed in Expi293 cells (from UniProt Q00731 1-392) (ligand)” was tested, and the stoichiometry N [3] was 2.
